In this experiment the target is T1, human DUBA polypeptide (human, UniProt Q96G74 1-571).
T1 construct: Used for endogenous DUBA of HEK293 and TLR3/293 cells and for human DUBA in transfected cells (Western blot with the hamster antibodies); also called OTUD5; OTU domain containing 5
T1 sequence: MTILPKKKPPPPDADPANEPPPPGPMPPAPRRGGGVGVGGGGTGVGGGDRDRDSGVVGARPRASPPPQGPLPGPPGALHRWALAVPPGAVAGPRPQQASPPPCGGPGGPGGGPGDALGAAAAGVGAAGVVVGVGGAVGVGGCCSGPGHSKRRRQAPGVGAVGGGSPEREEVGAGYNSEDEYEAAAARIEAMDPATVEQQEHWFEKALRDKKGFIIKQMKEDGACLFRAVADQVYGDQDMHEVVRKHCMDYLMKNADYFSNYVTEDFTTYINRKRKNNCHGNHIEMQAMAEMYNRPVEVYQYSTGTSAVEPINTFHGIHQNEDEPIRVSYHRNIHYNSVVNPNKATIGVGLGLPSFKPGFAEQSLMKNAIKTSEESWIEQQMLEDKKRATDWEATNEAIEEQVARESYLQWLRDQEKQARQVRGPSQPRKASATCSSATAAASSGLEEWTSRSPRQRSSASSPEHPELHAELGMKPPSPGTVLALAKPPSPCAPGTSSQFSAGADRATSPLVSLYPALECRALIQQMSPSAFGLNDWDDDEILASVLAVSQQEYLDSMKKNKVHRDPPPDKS
The experiment is described as follows: anti-DUBA immunoprecipitation from TLR3/293 lysates at 0, 60 and 180 minutes, anti-TRAF3 Western blot.

B1: endogenous TRAF3 (enzyme, UniProt Q13114 1-568, looked up)
chain: MESSKKMDSPGALQTNPPLKLHTDRSAGTPVFVPEQGGYKEKFVKTVEDKYKCEKCHLVLCSPKQTECGHRFCESCMAALLSSSSPKCTACQESIVKDKVFKDNCCKREILALQIYCRNESRGCAEQLMLGHLLVHLKNDCHFEELPCVRPDCKEKVLRKDLRDHVEKACKYREATCSHCKSQVPMIALQKHEDTDCPCVVVSCPHKCSVQTLLRSELSAHLSECVNAPSTCSFKRYGCVFQGTNQQIKAHEASSAVQHVNLLKEWSNSLEKKVSLLQNESVEKNKSIQSLHNQICSFEIEIERQKEMLRNNESKILHLQRVIDSQAEKLKELDKEIRPFRQNWEEADSMKSSVESLQNRVTELESVDKSAGQVARNTGLLESQLSRHDQMLSVHDIRLADMDLRFQVLETASYNGVLIWKIRDYKRRKQEAVMGKTLSLYSQPFYTGYFGYKMCARVYLNGDGMGKGTHLSLFFVIMRGEYDALLPWPFKQKVTLMLMDQGSSRRHLGDAFKPDPNSSSFKKPTGEMNIASGCPVFVAQTVLENGTYIKDDTIFIKVIVDTSDLPDP
notes: RING finger-type ubiquitin ligase; also called TNF receptor-associated factor (TRAF3)
B1: the binding result is given as “binds”.

These data come from WO2008121813A2 (dated 2009).
